Measurements reported in the nanobody polyreactivity screen of Harvey et al. (2022).

Experiment: yeast display, Sf9 membrane polyspecificity reagent, FACS + sequencing; frameworks hold sequencing errors
In short: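 A nanobody's polyreactivity label depends on the gate it was sorted from. Yeast display cells were stained with 10% biotinylated, detergent-solubilized Sf9 membrane reagent for 1 hour at 4 °C, enriched on streptavidin microbeads and sorted by FACS. The low and high (top ~1%) gates were set on anti-HA fluorescence for expression and streptavidin fluorescence for reagent binding.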

QVQLVESGGGLVQAGGSLRLSCAASGRIFSPYAMGWYRQAPGKERELVAAITSSGGSSYYADSVKGRFTISRDYAKNTVYLQMNSLKPEDTAVYYCNARRGRYTPSVNYWGQGTQVTVSS
polyreactivity (PSR sort gate): high polyreactivity

QVQLQESGGGLVQAGGSLRLSCAASGTISTDSYMGWYRQAPGKESKFVATIGYGGITYYADSVKGRSTISRDSAKNTVYLQMNILKPEDTAVYYCAVNSYYPDHYWYWGRGTQVTVSS
polyreactivity (PSR sort gate): high polyreactivity

QVQLVESGGGLVQAGGSLRLSCAASGRTFRIYARGWSRQAPGKERELDAAITKRGGITYYADSVKGRFTISRDNAQNTVYLQMNSLKPEDTAVYYCAKAWKSWSRISKSTFYWTSGDYWGQGTQVTVSS
polyreactivity (PSR sort gate): high polyreactivity

QVQHVETGGGLVQAGCSLRLSCAASGRTFLWNAMGWYRQERGNERELGARINLSGGRTYYADSVKGRFTISRDNAKNSVYLQMNSLKPEETAVYYCAAPVVRYRRDSWGQGTQVTVSS
polyreactivity (PSR sort gate): low polyreactivity

QVQLVESGGGLVQAGGSLRLSCAASGITFVFNVMGWSRQAPGKERELVADIRSGGTTNYADSVKGRFTISRDNAKNTVYIQMNSLKPEDTAVYYCAKEKYDYVGDYEVDYWGQGTQVTVSS
polyreactivity (PSR sort gate): low polyreactivity

QVQLVESGGGLVQAGGSLRLSCAASGITFYLYAMGWYRQAPGKERELVAAISSSGGSTYYADSVKGRFTISRDNAKNTVYLQMNSLKPEDTAVYYCNARRRTVPYRYYYWGQGTQVTVSS
polyreactivity (PSR sort gate): high polyreactivity

QVQLVESGGGLVQAGGSLRLSCGASGRIFGPYTMGWARQGPGKERELVARISRRGGSTYYADSVKGRFTISRDNAKNTVYLQMNSLKPEDTAVYYCARSQAVYDGWFAKFGYWGQGTQVTVSS
polyreactivity (PSR sort gate): low polyreactivity

QVQLGESGGGLVQAGGSLRLSCAASGSTFAYNDMGWYRQAPGKEMELVADIRSGGNTKYADSVKGRFTISRDNAKNTVYFQMNSLKPEDTAVYYCATDGYRIDVYHPDYRYDYWGQGTQVTVSS
polyreactivity (PSR sort gate): low polyreactivity

QVQLVESGGGLVQAGGSLRLSCAASGNTFYRNAMGWYRQAPGKERELVAGISNGGSTNYEDSVKGRFTISRDNAKNSVYLQMNSLKPEDTAVYYFAKDEPKVSRAFDYWGQGTQVNVSS
polyreactivity (PSR sort gate): low polyreactivity

QVQLVESGGGLVQAGGSLRLSCAASGNTFREYTMGWYRQAPGKERELVAGISGSGGRTYYADSVKGRFTISRDNAKNTVYLQMNSLKPEDTAVYYCYARWYYGIGYNYWGQGTQVTVSS
polyreactivity (PSR sort gate): high polyreactivity

EVHLVESGGGLVQPGGSLRLSCAASGDIYSRYRMGWYRQAPGKGREFVAAISGGSSTNYADSVKGRFTISRDNSKNTVYLQMNSLRAVDTAVSYCAAYKIDSDPRVYWGQGTQVTVSS
polyreactivity (PSR sort gate): low polyreactivity

QVHLVESGGGLVQAGGSLRLSWAASGFIFKNYAMGWYRQAPGKERELVAVISRSGGSTYYADSVKGRFTISRDNAKNTVYLQMNSLKPEDTAVYYCNADRWKSGYWRYDYWGQGTQVTVSS
polyreactivity (PSR sort gate): low polyreactivity

QVQLVESGGGLVQAGGSLRLSCAASGSIFPGNAMRWYRQAPGKERELVATITWSGGSTYYADSVKGRFTISRDNAKNTVYLQINSLKPEDTAVYYCNADSNWYYQWNYYGLYDYWGQGTQVTVSS
polyreactivity (PSR sort gate): low polyreactivity

QVQLVESGGGLVQAGCSLSLSCAASGSIFGRYTMGWYRQAPGKERELVAAINLRGGSTYYADSVKGRFTISRDNAKNTVYLQMNSLKPEDTAVYYCATVGWKQSAYDYWGQGTQVTVSS
polyreactivity (PSR sort gate): low polyreactivity

QVQLVESGGGLVQAGGSLRLSCAASGSIFGYYTMGWYRQAPGKERELVARITRGGSTYYADSVKGRFTISRDNAKNTVYLQMNSLKPEDTAVYYCAARRVNAGWTYGLRGNYWGQGTQVTVSS
polyreactivity (PSR sort gate): low polyreactivity

QVQLVESGGGLVQAGGSLRLSCAASGFTFGRYAMGWYRQAPGKERELVAGISSGGRTNYADSVKGRFTISRDNAKNTVYLQMNSLKPEDTAVYYCNARWYRYPPRVRLYYWGQGTQVTVSS
polyreactivity (PSR sort gate): high polyreactivity

QVQLVESGGGLVQAGGSLRLSCAASGRTFGWYDMGWYRQAPGKERELVAAISWSGSSTYYADSVKGRFTISRDNAKNTVYLQMNSLKPEDNAVYYFNDVIRSDLFSYLDGRYDYWGQGTQVTVSS
polyreactivity (PSR sort gate): high polyreactivity

QVQLVESGGGLVQAGGSLRLSCAASGFTFGGYAMGWYRQAPGKERELVARIRRSGGSTYYADSVKGRFTISRDNAKNTVYLQMNSLKPEDTAVYYCAAGYSRGQYRYNYWGQGTQVTVSS
polyreactivity (PSR sort gate): high polyreactivity

QVQLVESGGGLVQAGGSLRLSCAASGSIFGRYAMGWYRQAPGKERELVAAISYSGGSTYYADSVKGRFTISRDNAKNTVYLQMNSLKPEDTAFYYCAAETSYYTRWFDGHYYYWGQGTQVTVSS
polyreactivity (PSR sort gate): high polyreactivity

QVQIVESGGGLVQAGGSLRLSCAASGNIFDRYAMGWYRQAPGKERELVAGITWSGGSTYYADSVKGRFTISRDNAKNTVYLQMNSLKPDDTAVYYCGQANYYWGLGTQVTVSS
polyreactivity (PSR sort gate): low polyreactivity

QVQLVESGGGLVQAGGSLRLSCAAYGSILARYAMGWYRQAPGKERELVAAISYNGGSTYYADSVKGRFTISRDNAKNTVYLQMNSLKPEDTAVYYCAKAYDTTLTYNFWGQGTQVTVSS
polyreactivity (PSR sort gate): low polyreactivity

QVQLVESGGGLVQAGGSLRLSCAASGRTFKTYAMGWYRQAPGKERELVAAISRDGRTYYADSVKGRFTISRDNAMNTVYLQMNSLKPEDTAVYYCNKRSYRKGDYWGQGTQVTVSS
polyreactivity (PSR sort gate): low polyreactivity

QVQLVESGGGLVQAGGSLRLSCAASGFIFERYAMGWYRKAPGKERELVAGIYSGGSTYYADSVKGRFTISRDNAKNTVYLQMNSLKPEDTAVYYCAAFRRQHIIYNYWGQGTQVTVSS
polyreactivity (PSR sort gate): high polyreactivity

QVQLVESWGGLVQAGGSLRLRCAASGRTIDYNAIGWYRQAPRKEREFVADISNGGTTSYADSVKGSFTFSRDNAKNTVYLHMNSLKPEVTAVYYCATLYDWSSFANSYWYFGWEEDYWGQGTQVTVSS
polyreactivity (PSR sort gate): low polyreactivity

QVQLVESGGGLVQAGGSLRLSCAASGSIFIIYAMGWYRQAPGKERALVAAISRGGTSTYADSVKGRFTISRDNAKNTVYLQMNSLKPEDTAVYYCNARRSSRTNRYNYWGQGTQVTVSS
polyreactivity (PSR sort gate): high polyreactivity

QVQLVESGGGLVQAGGSLRLSCAASGSTFSGYAKGWYRQAPGKERELVAAINWNGGRTYYADSVKGRFTISRDNAKNTVYLQMNSLKPEDTAVYYCNKQSPRGRSAVYKYDYWGQGTQVTVSS
polyreactivity (PSR sort gate): high polyreactivity

QVQLVESGGGLVQAGGSLRLTCAASGNIFDLYAMGWYRQAPGTERELVASITSDGITYYADSVKGRFTISRDNAKNTVYLQMNSLKPEDSAVYYCAVVRSYRYLPRGDYWGQGTQVTVSS
polyreactivity (PSR sort gate): low polyreactivity

QVQLVESGVGLVQAGGSLRLSCAASGRIFNRYAMGWYRQAPGKERELVAAITGSGGRTYYADSVKGRFTISRDNAKNTVYVVRISMKPEDTAVYFCAKYYPEYPAYGRGDYWGQGTQVTVSS
polyreactivity (PSR sort gate): low polyreactivity

QVQHVESGGGLVQSGGSHRLSCAASGSTFSDNSLGWYRQAPAKERELVAAISRSGGSTYYADSVNGRFTISRDYAKNTVYLQMNSLIPEDTAVYYCATNRVLTGYDSWGQGTQVTVSS
polyreactivity (PSR sort gate): high polyreactivity

QVQLVESGGGLVQAGGSLRLSCAASGRTFGYYVMGCYRQAPGKERELVAAISASGGSTYYADSVKGRFTISRDNAKNTVYLQMNSLKPEDTAVYYCNADYLSQPDWYYFYLFDYWGQGTQVTVSS
polyreactivity (PSR sort gate): high polyreactivity

QVQLVESGGGLVQAGGSLRLICAASGFIFHSYAMGWYRQAPGKERELVARITIGDSTKYADSVKGRFTISRDNAKNTVYLQMNSLKPEDTAVYYCAADGWRYIAYYQGFRRMNYWGQGTQVTVSS
polyreactivity (PSR sort gate): high polyreactivity

QVQLVESGGGLVQAGGSLRLSCAASGYTFGEYAMGWYRQAPGKERELVATISLSDGSTNYADSVKGRFTISRDNAKNTVYLQMNSLKPEDTAVYYCATETQQALYGSVLKYNYWGQGTQVTVSS
polyreactivity (PSR sort gate): low polyreactivity

QVQLVESGGGLVQAGGSLRLSCAASGLTFPHYTMGWYRQAPGKEREFVARITGSGGRTYYADSVKGRFTISRDNAKNTVDLQRNSLKPEVTGVYYCARDRGYQSGYDYWGQGTQVSVSS
polyreactivity (PSR sort gate): high polyreactivity

QVQLVESGGGLVQAGGSLRLSCADSGSTITYYTMGWYRQAPGKERDLVAAISGSGGRTYYADSVKGRFTISRDNAKNTVYLQMNSLKPEDTAVYYCAAGYQLSRYDYWGQGTQVTVSS
polyreactivity (PSR sort gate): high polyreactivity

QVQLVESGGGLVQAGGSLRLSCAASGFSFTNYAMGWYRQAPGKERELVAAINRSGGRTYYADSVKGRFTISRDNAKNTVYLQMNSLKPEDTAVYYCAAYGRYYYIYDYWGQGTQVTVSS
polyreactivity (PSR sort gate): high polyreactivity

QVQLVESGGGLVQAGGSLRLSCAATGFTLTRNAMGWYRQAPGKERELVAAISWSGGTTYYADSVKGRFTISRDNAKNTFYLQMNSLKPEDTAVYYCAALRYKLPLGYWGQGTQVTVSS
polyreactivity (PSR sort gate): high polyreactivity

QVQLVESGGGLVQAGGSLRLSCAASGYTFVNYAMGWYRQAPGKEREFVAAISRSGGSTYYADSVKGRFTISRDNAKNTVYLQMNSLKPEDSAVYYCALRGYPPYKYYYWGQGTQVTVSS
polyreactivity (PSR sort gate): high polyreactivity

QVQLVESGGGLVQAGGSLRLSCAASVRIYGSNVMGWYRQAPGKERELVASISSGGTTYYADSVKGRFTISRDNAKNTVYLQMNSLKPEDTAVYYCAKQWTRIYQYRWYPGTRTGYDYWGQGTQVTVSS
polyreactivity (PSR sort gate): high polyreactivity

QVQLVESGGGLVQAGGSLRLSCAASGSTLVTNSMGWYRKAPGKERELVAAITFSGGTTYYADSVKGRFTISLDNAKNTVYLQMNSLKPEDTAVYYCAAEIWLEYVGYDYCGQGTQVTVSS
polyreactivity (PSR sort gate): high polyreactivity

QVQLVESGGGLVQAGGSLRLSCAASGLTFDVYTMGWYRQAPGKEREFVAGITSGGSTDYADSVKGRFTISRDNAKNTVYLQMNSLKPEDTAVYYCNKPFPYYPDGPNGYDYWGQGTQVTVSS
polyreactivity (PSR sort gate): low polyreactivity

QVQLVESGGGLVQAGGSLRLSCAASGFIFVPNAMGWYRQAPGKERELVAAIRWSDGTTYYADSVKGRFTISRDNAKNTVYLQMNSLKPEDTAVYYCATDHDPRYDYWGQGTQVTVSS
polyreactivity (PSR sort gate): high polyreactivity

QVQLVESGGGFVQAGGSLRLSCAASGSIFAYYVMGWYRPAPGTERELGAAITSVGSTNYADSVKGRFTISRDNAKNTVYLQMNSLKPQDTAVYYCADDQYQARYYYWGQGTQVTVSS
polyreactivity (PSR sort gate): low polyreactivity

QVQLVESGGGLVQAGGSIRLSCAASGSISAEKSMGRDRQAPGKERELVAAITSGGSTDYADSVKGRFTISRDNAKNNVYLQMNSLKPVDTAVSYCAASGRVGPGYWYDYWGQGTQVTVSS
polyreactivity (PSR sort gate): low polyreactivity
